# T1: SS-B (human, UniProt P05455 1-408)
# T1 sequence (looked up): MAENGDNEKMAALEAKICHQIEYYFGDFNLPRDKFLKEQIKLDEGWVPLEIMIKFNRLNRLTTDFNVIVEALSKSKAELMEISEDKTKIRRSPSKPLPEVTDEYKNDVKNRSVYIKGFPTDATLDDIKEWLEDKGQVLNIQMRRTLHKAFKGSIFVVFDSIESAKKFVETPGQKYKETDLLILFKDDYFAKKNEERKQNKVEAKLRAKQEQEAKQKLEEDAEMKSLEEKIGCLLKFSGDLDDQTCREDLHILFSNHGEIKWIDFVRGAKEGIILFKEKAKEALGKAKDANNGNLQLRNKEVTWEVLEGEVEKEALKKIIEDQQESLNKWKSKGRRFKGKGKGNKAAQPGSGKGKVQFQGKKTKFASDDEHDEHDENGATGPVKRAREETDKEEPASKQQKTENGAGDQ
# T2: Scl-70 (human, UniProt P11387 1-765)
# T2 sequence (looked up): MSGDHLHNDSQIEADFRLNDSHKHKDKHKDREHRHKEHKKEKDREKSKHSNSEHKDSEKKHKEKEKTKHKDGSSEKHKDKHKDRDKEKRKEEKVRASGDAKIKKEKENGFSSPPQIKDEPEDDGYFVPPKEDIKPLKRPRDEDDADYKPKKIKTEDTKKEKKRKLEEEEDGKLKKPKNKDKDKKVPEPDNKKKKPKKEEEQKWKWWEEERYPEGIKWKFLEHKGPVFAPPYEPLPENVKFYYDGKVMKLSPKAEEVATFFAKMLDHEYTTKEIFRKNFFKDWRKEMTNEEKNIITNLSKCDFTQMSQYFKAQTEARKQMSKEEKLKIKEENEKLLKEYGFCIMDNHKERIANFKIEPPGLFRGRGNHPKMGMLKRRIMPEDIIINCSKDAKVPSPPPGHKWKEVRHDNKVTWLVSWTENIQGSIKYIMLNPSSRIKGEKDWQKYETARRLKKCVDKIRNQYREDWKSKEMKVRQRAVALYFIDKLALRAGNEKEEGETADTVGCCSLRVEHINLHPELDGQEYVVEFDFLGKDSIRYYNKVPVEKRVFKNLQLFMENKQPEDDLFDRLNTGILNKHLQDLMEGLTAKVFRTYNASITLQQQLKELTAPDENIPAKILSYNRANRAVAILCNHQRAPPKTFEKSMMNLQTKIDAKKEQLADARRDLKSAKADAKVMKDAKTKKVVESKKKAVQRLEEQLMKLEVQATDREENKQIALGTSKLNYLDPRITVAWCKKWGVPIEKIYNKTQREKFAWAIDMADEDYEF
# T3: Jo-1 (human, UniProt P12081 1-509)
# T3 sequence (looked up): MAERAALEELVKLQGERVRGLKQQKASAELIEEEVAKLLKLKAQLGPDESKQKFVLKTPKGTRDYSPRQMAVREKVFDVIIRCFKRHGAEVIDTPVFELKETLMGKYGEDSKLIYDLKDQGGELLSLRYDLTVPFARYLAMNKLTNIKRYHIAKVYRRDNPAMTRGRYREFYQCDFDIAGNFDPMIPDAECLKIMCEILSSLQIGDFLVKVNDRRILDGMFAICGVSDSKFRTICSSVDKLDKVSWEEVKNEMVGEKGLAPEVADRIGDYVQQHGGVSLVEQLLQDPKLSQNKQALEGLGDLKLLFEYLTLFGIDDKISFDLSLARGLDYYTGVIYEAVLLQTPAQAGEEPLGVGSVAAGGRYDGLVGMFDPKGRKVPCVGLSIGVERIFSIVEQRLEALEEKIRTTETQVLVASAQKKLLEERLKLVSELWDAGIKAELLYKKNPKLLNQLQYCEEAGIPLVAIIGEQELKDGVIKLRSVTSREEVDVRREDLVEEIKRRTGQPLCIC
# T4: CenpB (human, UniProt P07199 1-599)
# T4 sequence (looked up): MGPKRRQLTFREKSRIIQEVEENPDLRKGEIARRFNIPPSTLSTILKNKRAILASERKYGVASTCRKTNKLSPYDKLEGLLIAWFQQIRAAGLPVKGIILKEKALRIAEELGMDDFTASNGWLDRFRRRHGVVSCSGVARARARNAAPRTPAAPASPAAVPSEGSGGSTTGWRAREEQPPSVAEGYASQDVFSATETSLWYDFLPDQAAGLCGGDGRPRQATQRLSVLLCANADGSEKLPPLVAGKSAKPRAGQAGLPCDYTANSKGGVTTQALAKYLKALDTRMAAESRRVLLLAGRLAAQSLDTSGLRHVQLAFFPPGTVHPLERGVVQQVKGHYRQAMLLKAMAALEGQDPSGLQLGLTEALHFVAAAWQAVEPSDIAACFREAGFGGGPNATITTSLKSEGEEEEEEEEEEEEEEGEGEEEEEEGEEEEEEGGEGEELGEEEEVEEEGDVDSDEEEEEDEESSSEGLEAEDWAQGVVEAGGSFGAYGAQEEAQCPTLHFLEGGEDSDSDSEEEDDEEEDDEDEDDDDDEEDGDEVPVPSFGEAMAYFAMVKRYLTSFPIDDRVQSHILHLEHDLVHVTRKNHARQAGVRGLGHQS
# B1: MEL-1872 (antibody)
# VH: KVQLRESGPSLVKPSQTLSLTCTASGFSLSDKAVGWVRQAPGQPLEWLGTIDTTGNAVYNPGLKSRLSITKDNSKSQVSLSLSSVTTEDSATYHCSTVHQKTRRSCPSDYSFICDCEGTGSHCCRASNCPYYCNYGRDRMCTGRSNIHEWHVDAWGQGLLVTVSS
# VL: QAVLTQPSSVSGSLGQRVSTTCSGSSSNVGNGYVSWYQLIPGSAPRTLIYGDTSRASGVPDRFSGSRSGNTVTLTISSLQAEDEADYFCASAEDGSSNAVFGRGTTLTV
# notes: also called H 1872; BrNAb MEL-1872
# B2: MEL-2129 (antibody)
# VH: KVQLRESGPSLVKPSQTLSLTCTASGFSLSDKAVGWVRQAPGKALEWLGSIDTGGNAGYNPGLKSRLSITKGNSKSQVSLSVSSVTTEDSATYYCSTVHQKTRRSCPVDYYYSCDCEGSGSHCCSASNCPYYCKYGRDRVCTDKHTYSYEWYVDAWGQGLLVTVSS
# VL: B1 VL
# notes: also called BrNAb MEL-2129
# B3: MEL-1842 (antibody)
# VH: KVQLQESGPSLVKPSQTLSLTCTASGFSLSDKAVGWVRQAPGQALEWLGSIDTGGNADYNPGLKSRLSITKDNAKSQVSLSVSSVTTEGSATYYCSTVHQKTLRSCPSDYPYICDCEDTGSHCCRATNCPYYCNHGRDRMCTGRTYTYEWHVEAWGQGLLVTVSS
# VL: B1 VL
# notes: also called H 1842; BrNAb MEL-1842
# How the values were obtained:
# [1] = target: AD8 WT Env (gp160, from lysed pseudovirions / on pseudovirus) (HIV-1 AD8, clade B); experiment: cell-based or functional assay
# [2] = target: T1, SS-B; experiment: single autoantigen ELISA (AESKULISA ANA-8Pro), FIG. 9A; antibody printed as '1879'
# [3] = target: T2, Scl-70; experiment: as above
# [4] = target: T3, Jo-1; experiment: as above
# [5] = target: T4, CenpB; experiment: as above
# [6] = target: T5, S364A (HIV-1); experiment: capture ELISA on Env of lysed AD8 pseudovirus, % of WT
# T5 construct: full-length Env of lysed pseudovirus; HXB-2 numbering
# [7] = target: T1, SS-B; experiment: single autoantigen ELISA (AESKULISA ANA-8Pro), FIG. 9A
# [8] = target: T2, Scl-70; experiment: as above
# [9] = target: T6, monomeric AD8 gp120 (HIV-1 AD8, clade B); experiment: direct ELISA, plates coated with 1 µg/ml Env (FIG. 6C)
# T6 construct: also called monomeric gp120; monomeric gp120 form of Env
Binder,"IC50 (read off the curve); axis Neutralisation (%), panel AD8 [1]",binding result [2],binding result [3],binding result [4],binding result [5],Env binding (%) at antibody EC50 [6],binding result [7],binding result [8],binding result [9]
B1,~7 ng/mL,no binding (tested: 100 µg/ml),no binding (tested: 100 µg/ml),no binding (tested: 100 µg/ml),no binding (tested: 100 µg/ml),75%,–,–,–
B2,–,–,–,–,–,42%,no binding (tested: 100 µg/ml),no binding (tested: 100 µg/ml),–
B3,–,–,–,–,–,–,no binding (tested: 100 µg/ml),no binding (tested: 100 µg/ml),binds

# Reference: patent US20230272048A1 (UNIVERSITY OF MELBOURNE, published 2023)
